The results in this text go back to patent publication US20170037111A1, “Novel peptides and combination of peptides for use in immunotherapy against ovarian cancer and other cancers” (immatics biotechnologies GmbH, priority 2015, published 2017).

In the assay the target is HLA-A*02:01 (Homo sapiens, UniProt P04439, D140Y/D185E/D98H/E176V/E277Q/G131W/G231S/I119V/I121R/I166T/I218V/L300P/L318F/N151K/N90K/P208A/P217A/Q86G/Q94H/R138H/R169H/T345S). In words: MHC binding assay (UV-ligand exchange, β2m ELISA, peptide exchange yield). As to conditions: MHC class I binding score; binding to HLA-A*02:01 ranged by peptide exchange yield (UV-ligand exchange, β2m ELISA). The method in brief:
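Binding is expressed as peptide exchange yield: stabilized MHC complexes were quantified by β2m ELISA, with a 450 nm TMB read-out on streptavidin-coated plates. Complexes came from UV-ligand exchange, where UV irradiation cleaves a photolabile peptide so the candidate peptide can load.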
(In general: ELISA stands for enzyme-linked immunosorbent assay.)
With “455 (SLLKEPQKVQL; listed as Homo sapiens) [compound 455]”, the Peptide exchange entry is recorded as “″++″ (≧20% = ++)”.

For the substance “456 (LLIGHLERV; listed as Homo sapiens) [compound 456]”, the Peptide exchange entry is reported as “″+++″ (≧50% = +++)”.

“457 (SLLPGNLVEKV; listed as Homo sapiens) [compound 457]”: the Peptide exchange result is “″+++″ (≧50% = +++)”.

For “458 (SLIDKLYNI; listed as Homo sapiens) [compound 458]”, the Peptide exchange entry is on record as “″++″ (≧20% = ++)”.

On to “459 (ALITEVVRL; listed as Homo sapiens) [compound 459]”, for which the Peptide exchange entry was “″++″ (≧20% = ++)”.

As for “461 (VMFRTPLASV; listed as Homo sapiens) [compound 461]”, the Peptide exchange result was “″++″ (≧20% = ++)”.

Turning to “462 (KLAKQPETV; listed as Homo sapiens) [compound 462]”, the Peptide exchange result is listed as “″+++″ (≧50% = +++)”.

On to “464 (ALNDCIYSV; listed as Homo sapiens) [compound 464]”, for which the Peptide exchange entry is listed as “″+++″ (≧50% = +++)”.

Regarding “465 (QLCDLNAEL; listed as Homo sapiens) [compound 465]”, the Peptide exchange result is on record as “″+++″ (≧50% = +++)”.

Turning to “466 (VLIANLEKL; listed as Homo sapiens) [compound 466]”, the Peptide exchange result is reported as “″++++″ (≧75% = ++++)”.

As for “467 (FLAKDFNFL; listed as Homo sapiens) [compound 467]”, the Peptide exchange result is reported as “″+++″ (≧50% = +++)”.

For “468 (YLRSVGDGETV; listed as Homo sapiens) [compound 468]”, the Peptide exchange entry is “″+++″ (≧50% = +++)”.

As for “469 (YLASDEITTV; listed as Homo sapiens) [compound 469]”, the Peptide exchange result is given as “″+++″ (≧50% = +++)”.

For “471 (YLYNNMIAKI; listed as Homo sapiens) [compound 471]”, the Peptide exchange result is on record as “″+++″ (≧50% = +++)”.

As for “472 (KLLEVSDDPQV; listed as Homo sapiens) [compound 472]”, the Peptide exchange entry is reported as “″+++″ (≧50% = +++)”.

As for “473 (AMATESILHFA; listed as Homo sapiens) [compound 473]”, the Peptide exchange result is reported as “″+++″ (≧50% = +++)”.

For “474 (YLDPALELGPRNV; listed as Homo sapiens) [compound 474]”, the Peptide exchange result is “″+++″ (≧50% = +++)”.

Regarding “475 (LLLNEEALAQI; listed as Homo sapiens) [compound 475]”, the Peptide exchange result is “″+++″ (≧50% = +++)”.

As to “476 (ALMERTGYSMV; listed as Homo sapiens) [compound 476]”, the Peptide exchange result is “″+++″ (≧50% = +++)”.

Take “477 (ALLPASGQIAL; listed as Homo sapiens) [compound 477]”: the Peptide exchange entry is listed as “″+++″ (≧50% = +++)”.

“478 (YLLHEKLNL; listed as Homo sapiens) [compound 478]”: the Peptide exchange result is recorded as “″+++″ (≧50% = +++)”.

On to “479 (SLFGNSGILENV; listed as Homo sapiens) [compound 479]”, for which the Peptide exchange entry is “″+++″ (≧50% = +++)”.

“480 (ALLEDSCHYL; listed as Homo sapiens) [compound 480]”: the Peptide exchange result is “″+++″ (≧50% = +++)”.

On to “481 (GLIEDYEALL; listed as Homo sapiens) [compound 481]”, for which the Peptide exchange entry was “″+++″ (≧50% = +++)”.

In the case of “484 (SLIEKVTQL; listed as Homo sapiens) [compound 484]”, the Peptide exchange entry is on record as “″+++″ (≧50% = +++)”.

As for “485 (NVPDSFNEV; listed as Homo sapiens) [compound 485]”, the Peptide exchange result is “″+++″ (≧50% = +++)”.

For “486 (AVMESIQGV; listed as Homo sapiens) [compound 486]”, the Peptide exchange entry is “″+++″ (≧50% = +++)”.

On to “487 (LLINSVFHV; listed as Homo sapiens) [compound 487]”, for which the Peptide exchange result is given as “″+++″ (≧50% = +++)”.

As for “488 (FLAEDPKVTL; listed as Homo sapiens) [compound 488]”, the Peptide exchange result is “″+++″ (≧50% = +++)”.

For “490 (FLLQHVQEL; listed as Homo sapiens) [compound 490]”, the Peptide exchange result is “″+++″ (≧50% = +++)”.

For the substance “491 (GLNDRSDAV; listed as Homo sapiens) [compound 491]”, the Peptide exchange entry is “″++″ (≧20% = ++)”.

For the substance “492 (SLFDGFADGLGV; listed as Homo sapiens) [compound 492]”, the Peptide exchange result is “″+++″ (≧50% = +++)”.

Take “493 (GLLGEKTQDLIGV; listed as Homo sapiens) [compound 493]”: the Peptide exchange entry is listed as “″+++″ (≧50% = +++)”.

In the case of “494 (ALQPEPIKV; listed as Homo sapiens) [compound 494]”, the Peptide exchange result was “″++″ (≧20% = ++)”.

As for “495 (FIFSEKPVFV; listed as Homo sapiens) [compound 495]”, the Peptide exchange entry is “″+++″ (≧50% = +++)”.

For the substance “496 (FLVEKQPPQV; listed as Homo sapiens) [compound 496]”, the Peptide exchange entry is “″+++″ (≧50% = +++)”.

On to “497 (GLLEKLTAI; listed as Homo sapiens) [compound 497]”, for which the Peptide exchange result was “″+++″ (≧50% = +++)”.

For “498 (KLWTGGLDNTV; listed as Homo sapiens) [compound 498]”, the Peptide exchange result is listed as “″+++″ (≧50% = +++)”.

“500 (SLMEDQVLQL; listed as Homo sapiens) [compound 500]”: the Peptide exchange result is on record as “″+++″ (≧50% = +++)”.

Consider “501 (LLDPNVKSIFV; listed as Homo sapiens) [compound 501]”, for which the Peptide exchange result is “″+++″ (≧50% = +++)”.

As for “502 (RLLAQVPGL; listed as Homo sapiens) [compound 502]”, the Peptide exchange entry is given as “″+++″ (≧50% = +++)”.

As for “503 (SLNHFTHSV; listed as Homo sapiens) [compound 503]”, the Peptide exchange entry is reported as “″+++″ (≧50% = +++)”.

Regarding “504 (GLSDGNPSL; listed as Homo sapiens) [compound 504]”, the Peptide exchange result is “″++″ (≧20% = ++)”.

As for “505 (SLAPGDVVRQV; listed as Homo sapiens) [compound 505]”, the Peptide exchange result is listed as “″++″ (≧20% = ++)”.

Regarding “506 (KLLGKVETA; listed as Homo sapiens) [compound 506]”, the Peptide exchange entry was “″+++″ (≧50% = +++)”.

On to “507 (KLIDDQDISISL; listed as Homo sapiens) [compound 507]”, for which the Peptide exchange result is listed as “″+++″ (≧50% = +++)”.

Regarding “508 (ILAQEQLVVGV; listed as Homo sapiens) [compound 508]”, the Peptide exchange result was “″+++″ (≧50% = +++)”.

In the case of “509 (FLFDTKPLIV; listed as Homo sapiens) [compound 509]”, the Peptide exchange result is recorded as “″+++″ (≧50% = +++)”.

In the case of “510 (KLYSVVSQL; listed as Homo sapiens) [compound 510]”, the Peptide exchange entry is “″++″ (≧20% = ++)”.

With “512 (SLSEIVPCL; listed as Homo sapiens) [compound 512]”, the Peptide exchange result was “″+++″ (≧50% = +++)”.

Consider “513 (SLWPSPEQL; listed as Homo sapiens) [compound 513]”, for which the Peptide exchange entry is on record as “″++″ (≧20% = ++)”.

With “514 (ILVDWLVQV; listed as Homo sapiens) [compound 514]”, the Peptide exchange result is reported as “″+++″ (≧50% = +++)”.

With “515 (LLQELVLFL; listed as Homo sapiens) [compound 515]”, the Peptide exchange result was “″+++″ (≧50% = +++)”.

With “516 (AVGPASILKEV; listed as Homo sapiens) [compound 516]”, the Peptide exchange result was “″++″ (≧20% = ++)”.

Regarding “517 (LLMPIPEGLTL; listed as Homo sapiens) [compound 517]”, the Peptide exchange entry is listed as “″+++″ (≧50% = +++)”.

With “519 (GLLHLTLLL; listed as Homo sapiens) [compound 519]”, the Peptide exchange entry is recorded as “″+++″ (≧50% = +++)”.

Regarding “520 (LAVHPSGVAL; listed as Homo sapiens) [compound 520]”, the Peptide exchange entry is “″+″ (≧10% = +)”.

As to “521 (MLLTKLPTI; listed as Homo sapiens) [compound 521]”, the Peptide exchange entry was “″+++″ (≧50% = +++)”.

Turning to “522 (TLWYRSPEV; listed as Homo sapiens) [compound 522]”, the Peptide exchange entry is “″++″ (≧20% = ++)”.

As to “523 (YQIPRTFTL; listed as Homo sapiens) [compound 523]”, the Peptide exchange result is on record as “″++″ (≧20% = ++)”.

“524 (ALIENLTHQI; listed as Homo sapiens) [compound 524]”: the Peptide exchange result is given as “″++″ (≧20% = ++)”.

For the substance “525 (VLLEAGEGLVTI; listed as Homo sapiens) [compound 525]”, the Peptide exchange entry was “″+++″ (≧50% = +++)”.

For “526 (RLAEVGQYEQV; listed as Homo sapiens) [compound 526]”, the Peptide exchange entry is recorded as “″++″ (≧20% = ++)”.

“527 (FLLEPGNLEV; listed as Homo sapiens) [compound 527]”: the Peptide exchange entry was “″++++″ (≧75% = ++++)”.

As for “528 (SVAEGRALMSV; listed as Homo sapiens) [compound 528]”, the Peptide exchange result was “″+++″ (≧50% = +++)”.

For “529 (LLADELITV; listed as Homo sapiens) [compound 529]”, the Peptide exchange entry is given as “″+++″ (≧50% = +++)”.

As for “530 (VMYADIGGMDI; listed as Homo sapiens) [compound 530]”, the Peptide exchange result is recorded as “″+++″ (≧50% = +++)”.

On to “531 (YTLPIASSIRL; listed as Homo sapiens) [compound 531]”, for which the Peptide exchange entry was “″+++″ (≧50% = +++)”.

As to “537 (TLAPGEVLRSV; listed as Homo sapiens) [compound 537]”, the Peptide exchange entry is “″+++″ (≧50% = +++)”.

Take “538 (LLLAHIIAL; listed as Homo sapiens) [compound 538]”: the Peptide exchange result is on record as “″++″ (≧20% = ++)”.
